Legend:
DC-SIGN/Fc chimera = target: T1, DC-SIGN/Fc chimera (human, UniProt Q9NNX6 62-404); assay: SPR (Biacore 2000), receptor amine-coupled on CM5 chip, fusion protein as analyte, apparent Kd from steady state
T1 construct: Amine-coupled to a CM5 chip at 8312 RU; also called CD209; dendritic cell-specific ICAM-3-grabbing nonintegrin; Fc part of the bought chimera not given
T1 sequence (looked up): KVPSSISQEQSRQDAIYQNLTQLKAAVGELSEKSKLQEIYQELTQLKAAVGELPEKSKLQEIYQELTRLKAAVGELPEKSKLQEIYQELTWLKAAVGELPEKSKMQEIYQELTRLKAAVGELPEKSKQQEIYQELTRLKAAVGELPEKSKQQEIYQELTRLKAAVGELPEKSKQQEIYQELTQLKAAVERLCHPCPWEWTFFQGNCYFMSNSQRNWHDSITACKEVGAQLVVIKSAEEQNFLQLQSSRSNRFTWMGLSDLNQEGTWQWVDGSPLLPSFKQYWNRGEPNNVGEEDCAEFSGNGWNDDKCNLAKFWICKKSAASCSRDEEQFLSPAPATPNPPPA
Description: (§1) Immunoglobulin fusion proteins of PSGL-1 and AGP produced in wild type Pichia and purified, as described in Example 1, were used in experiments to assess their ability to bind to recombinant human macrophage mannose receptor (MMR), DC-SIGN/Fc chimera and mannan binding lectin (MBL) Using Biacore (real time surface plasmon resonance spectroscopy) analysis as follows.
(§2) Analyses were performed using a Biacore 2000 instrument (Biacore, GE Healthcare, Uppsala, Sweden). Recombinant human macrophage mannose receptor (MMR), DC-SIGN/Fc chimera and mannan binding lectin (MBL) were purchased from R & D Systems and immobilized on a CM5 sensor chip using amine coupling chemistry according to the manufacturer's instructions. Briefly, activation of the surface was made with EDC/NHS 1:1, 10 μL/min for 7 minutes and the receptors were dissolved in sodium acetate buffer pH 4.5 at concentrations of 15 μg/ml for MMR, 10 μg/ml for DC-SIGN and 90 μg/ml for MBL and immobilized at 10 μl/min for 7 minutes. Deactivation of excess of reactive groups was made with ethanolamine, 20 μl/min for 7 minutes. […] Data were calculated using BIAevaluation 4.1 software (Biacore, GE Healthcare) and the apparent equilibrium dissociation constants (Kd) were calculated by plotting steady state binding levels against the analyte concentrations for several concentrations simultaneously. […]

[1] = target: T2, Recombinant human macrophage mannose receptor (MMR) (human, UniProt P22897 19-1383, limits assumed); assay: as above
T2 construct: Bought; Amine-coupled to a CM5 chip at 13745 RU; also called CD206
T2 sequence (looked up): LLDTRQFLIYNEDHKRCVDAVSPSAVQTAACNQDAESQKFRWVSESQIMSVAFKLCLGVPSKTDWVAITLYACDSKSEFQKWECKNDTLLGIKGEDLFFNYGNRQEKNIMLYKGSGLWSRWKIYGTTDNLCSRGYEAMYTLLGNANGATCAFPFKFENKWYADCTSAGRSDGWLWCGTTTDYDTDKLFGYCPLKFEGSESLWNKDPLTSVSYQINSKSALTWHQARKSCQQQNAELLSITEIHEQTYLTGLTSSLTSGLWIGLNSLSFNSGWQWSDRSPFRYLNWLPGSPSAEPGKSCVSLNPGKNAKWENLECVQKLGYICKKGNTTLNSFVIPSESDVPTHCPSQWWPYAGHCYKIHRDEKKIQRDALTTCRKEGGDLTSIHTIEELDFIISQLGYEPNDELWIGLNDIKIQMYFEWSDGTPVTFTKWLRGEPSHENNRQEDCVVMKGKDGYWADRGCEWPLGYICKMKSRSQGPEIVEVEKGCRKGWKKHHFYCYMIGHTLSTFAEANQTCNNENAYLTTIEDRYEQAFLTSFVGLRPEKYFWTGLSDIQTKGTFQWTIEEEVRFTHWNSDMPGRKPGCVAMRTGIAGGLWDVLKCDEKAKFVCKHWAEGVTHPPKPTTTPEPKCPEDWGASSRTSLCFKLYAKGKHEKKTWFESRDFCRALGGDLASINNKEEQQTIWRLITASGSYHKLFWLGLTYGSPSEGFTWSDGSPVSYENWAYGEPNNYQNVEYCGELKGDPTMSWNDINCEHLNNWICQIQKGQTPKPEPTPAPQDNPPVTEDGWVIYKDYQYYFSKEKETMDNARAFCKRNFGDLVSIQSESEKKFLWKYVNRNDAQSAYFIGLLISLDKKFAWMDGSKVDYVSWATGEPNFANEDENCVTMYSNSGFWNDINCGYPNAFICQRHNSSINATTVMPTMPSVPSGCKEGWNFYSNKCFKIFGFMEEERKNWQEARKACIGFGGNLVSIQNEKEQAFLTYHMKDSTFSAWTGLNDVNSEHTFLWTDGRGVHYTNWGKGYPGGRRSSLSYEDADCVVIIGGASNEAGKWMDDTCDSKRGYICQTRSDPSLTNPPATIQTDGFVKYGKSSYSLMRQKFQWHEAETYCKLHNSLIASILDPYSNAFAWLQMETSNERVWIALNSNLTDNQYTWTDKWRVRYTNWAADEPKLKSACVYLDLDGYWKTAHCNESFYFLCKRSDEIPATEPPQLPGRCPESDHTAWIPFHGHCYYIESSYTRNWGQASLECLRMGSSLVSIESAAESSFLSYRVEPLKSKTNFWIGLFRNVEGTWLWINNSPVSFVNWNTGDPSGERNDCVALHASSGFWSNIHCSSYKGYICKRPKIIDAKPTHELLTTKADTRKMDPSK
Description: as §1, §2

- Kd (DC-SIGN/Fc chimera): 8.82 nM
- Kd [1]: 76.7 nM
B1: PSGL-1/mIgG2b fusion protein produced in Pichia pastoris (Fc fusion, UniProt Q14242 18-320, looked up)
chain: LQLWDTWADEAEKALGPLLARDRRQATEYEYLDYDFLPETEPPEMLRNSTDTTPLTGPGTPESTTVEPAARRSTGLDAGGAVTELTTELANMGNLSTDSAAMEIQTTQPAATEAQTTQPVPTEAQTTPLAATEAQTTRLTATEAQTTPLAATEAQTTPPAATEAQTTQPTGLEAQTTAPAAMEAQTTAPAAMEAQTTPPAAMEAQTTQTTAMEAQTTAPEATEAQTTQPTATEAQTTPLAAMEALSTEPSATEALSMEPTTKRGLFIPFSVSSVTHKGIPMAASNLSVNYPVGAPDHISVKQC
modifications: O-linked mannose glycans (Hex2-9) and N-linked glycans from expression in P. pastoris; sites not given
notes: extracellular domain; Homodimeric chimeric glycoprotein, about 250-300 kDa, secreted from P. pastoris GS115 by the pPICZalpha vector and purified on MabSelect SuRe; also called PSGL-1/mlgG2b; Pp/PSGL1-mIgG2b; not shown: Fc part of mouse IgG2b

Source: patent US20090181041A1 (published 2009)
